For 6 sequences, protein production results are on record in a protein production outcome set (Wang et al. 2014).

A short description of the series: label from the status in PepcDB records.

Turning to “MTAAPAALHDRALHLLQTIWGYPAFRGVQGEIVQQVAEGGNALVLMPTGGGKSLCYQLPSLLRPGTGIVVSPLIALMKDQVDTLRQNGVRAAFLNSTLLPHEAREVEDALLRGDLDLLYVAPERLLMPRTLDLLERAPVALFAIDEAHCVSQWGHDFRPEYQQLSVLAERFPELPRVALTATADERTRADIKSVLRLEDAPQFVSSFDRPNIQYRVGLKDSPKTQLLHFIREEHPGDAGIVYCLSRKSVEETAKWLQAQGIDALAYHAGLSSTERNNVQERFLNEEGVIVCATVAFGMGIDKPNVRFVAHLDLPKSMEGYYQETGRAGRDGLPSTAWMVYGLSDVVNVRRMLAQSDAPEEVKRVEASKLDALLTYCEAATCRRQVLLHYFGEELSEPCGNCDVCLNPPRVRDLTREAQMALSATIRTGNRFGAAHLTDVLLGRETDKVLAQGHHQLPTFGVGKEHDEKLWRSVLRQLVSLGYLSADDHFGLRATGKSRGILKEGQKLLLREDTLLPGAGKSKRDRASASRAALDSHDAPLFEALRAWRLQKAKELSLPPYTIFHDATLKTIAELRPGSHATLGTVSGVGGRKLAAYGDEVLQVVRDSSGGGQAGPENLLDSPAFDPAVRGARNNNAVLDVLGSKGELQPQPKPAHPGVLGALRELRRTLAAEQGRSLSWVFPEATIDELARKLPTRSEELKDVFGLGGQRIQAFGDRILATIRAELTGGAPSPAPSAPAALFDEAVPPAPNADLSEALRELRRELMKETGYSAFVVFTNATLEALAARQPRTLAELAEVPGLGEKRIEAYGERILDAINTVLDG”, the protein production entry was “failed”.
The result for “MTADEWPQRLIRFTDWSHAEATAVEHLLPVLIAQESELAQWSFLRKHPWWRLRYRPACPDSAKALDAALDELVDAGVLASWTRGIYEPEETAFGGPAAMKIAHALFHYDSRHLLDEAARQQTVSGPRLGRRELAVLLLSVAMRAAGLDWYEQGDVWARIAAERSGDEVRSPQRHRAAVHRLMTVDVSTTSRSVARGRLAPLAEWIATFEWFGQQLADLNRQGRLERGLRAVIAHHGIFHFNRLGLAAQDQHTLSTLAKEVVMGTSDNAASTQAEGAPGATVNGVNSDTIEAPSADRLRAQLIDHLVETGCVRTPRVEEAMRTVPRHLFVPNAPLEKAYGNAPVDTKFDGSGRSISCASQPDIVAMMLEQLDVQPGQKILELGAGTGFNAGLLGYLVGETGHVTTIDVDEDIVAGARGGLAAAGIHNVEVILGDGAVGHTPNAPYDRIEATVGAHGVPHAWLDQLAPGGRLLTPLRLRGSVSRSIAFENQDGAWRSVGSQMNTFMPLRRGIADDPRLFVPLDPDHTVTLVTNGDQKVDADALGDIFRQPRTEAWTDVTFRGPESAEYLELWLTCAMPNGLSRMPAKNEAIEKGLVTAPYPSSTAVFEDGTLTYLTRRPYAKKAPDGATLYEFGVIGHGPDAEALAGDVADQIRAWDQDFRALDVGFEIQPLDAAPLAPKPGRFAFDNPLNRIVIEWQ” reads “failed”; that for “MTADPTKNDPHGLGTASRPAAELAVGETETIPVIEETARIDKRVVEKGRVRVQTRTETTDDVLRETLRSDVVGVTRIPIDRVIAEGEVAPTIRTENGVTIIPVLEEVLVVEKRLILKEEVHIRQTTSGEAVEVPVTLRRQHAVVERVSADGHVSEIPPKEQTP”, “failed”; that for “MTAEIDIQNSIRLELSRHGHYVFRANVGKVRMPNGRIFDTGLPKGFPDLFGFRGTDGKMFFIEVKNEIGKLRQEQKNFQQAMEITPAIGVARSAEEALKIVEGLEHHHHHH”, “failed”.
Consider “MTAEVLIGDGDVRLSPHPLRAIVLGEVHARPFTALSLPARVLHFAFDTSGQRAAADRAAMISFCESRGLQPPPPGEKHHRANFGTTTLRWEQHSEFTTYTWEIPADPAGVPFHPEASSLASPMRLLPQPGPLLVAVDLHAMPEDPPRTSPERLFDRASLAVAENSDGAALFATDFQPGPSGFVRVLVIDRGMSAERAGALVQRVLEVETYRTLALLGLPEAQRLAPSIAASERRLAEVTAEMRRAGDLANNNKLLQELTELAAEVEAGAAASLYRFGASRAYDEIMNGRLATLGERKVGGLPTWSSFLARRMKPAMRTCATTEARQSDLSLKLARAANLLRTRVDVEVEQQNQELLKSMNARTRLQLRLQTTVEGLSTAAITYYVVGLFGYMVKGAAEAGRLKIDPNLLTAGFVPIAALVIWWTIRRIRKKHIPDVD”, for which the protein production result is “failed”.
Under “MTAFDPFEDFGDTEEIGERLNDADPAVRRLAVIDLAETANADVLPHLLTAVADPDATVRLQVAIALSEFDTVEAAAGLARLAADQDLTVAQAAADSLAELKDPATADSILPLVSHGRAFVRAAGFRGLKALRSRGALAPALAAMRDEDANVRAQALGVVAYLKLEETLPSLIAATRDAEAIVRSVAVNALSFTSQPAAAAAVTAALDDENWQVRAAAADTLGRIGQTSAVDGLTAGLSDEYWQVRQKCLNALGKLKAQSAVRQISELLTSDLASLRKESAAALGEIADPSSRAVLMHHIGDADPDVRKTVCWALTRLG” stands “failed”.
